Results from paper PMC12540712.

Target: And-1 HMG domain, 984-1129 (UniProt O75717)
Assay: GST-HMG pull-down of SepB, immunoblot
Details: reference: wild-type SepB; sites T826

- binding against the reference: stronger
Substance: And-1 SepB domain, 330-984 (from UniProt O75717) T826A SepB
